# From the nanobody polyreactivity screen of Harvey et al. (2022)
# Assay: yeast display, Sf9 membrane polyspecificity reagent, FACS + sequencing; frameworks hold sequencing errors
# In short: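 Sorting gates, low and high (top ~1%), were placed on anti-HA fluorescence to track expression and on streptavidin fluorescence to track reagent binding. A clone's polyreactivity label is taken from the gate it came out of. The reagent was 10% biotinylated, detergent-solubilized Sf9 membrane, applied for 1 hour at 4 °C to galactose-induced yeast display cells.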
row,Sequence,polyreactivity (PSR sort gate)
1,QVQLVESGGGLVQAGGSLRLSCAASGFIFGWNAMGWYRQAPGKVREFVAAITSSGTSTYYADSVKGRFTISRDNAKNTVYLQMNSLKPEDTAVYYCAADVIFTWLAYSTEYDYWGQGTQVTVSS,low polyreactivity
2,QVQLVESGGGLVQAGGSLRLSCAASGFIFGYNAMGWYRQAPGKERELVAAISGSGGRTYYADSVKGRFTISRDNAKNTVYLQMNSLIPEDTAVYYCAVADRRGLGYWGQGTQVTVSS,high polyreactivity
3,QVQLVESGGGLVQAGGSLRLSCAASGFIFGYNAMGWYRQAPGKERELVASITYRGGRTYADSVKGRFTISRDNAKNTVYLQMNSLKPEDTAVYYCAAVRHVYVGGFDYWGQGTQVTVSS,high polyreactivity
4,QVQLVESGGGLVQAGGSLRLSCAASGFIFGYYAMGWYRQAPGKEREFVAAISARSGRTYYADSVKGRFTISRDNAKNTVYLQMNSLKPEDTAVYYCNTAYAYSGRYDYWGQGTQVTVSS,high polyreactivity
5,QVQLVESGGGLVQAGGSLRLSCAASGFIFGYYAMGWYRQAPGKERELVAAISSGSITTYADSVKGRFTISRDNAKNTVYLQMNSLKPEDTAVYYCNAVRWFFTFVSSSSGVGHGYWGQGTQVTVSS,low polyreactivity
6,QVQLVESGGGLVQAGGSLRLSCAASGFIFGYYAMGWYRQAPGKERELVAAISSRGGSTYYADSVKGRFTISRDNAKNTVYLQMNSLIPEDTAVYYCAVRLVSFRHNFGQYDYWGQGTQLTVSS,high polyreactivity
7,QVQLVESGGGLVQAGGSLRLSCAASGFIFGYYAMGWYRQAPGKERELVAGISWGGARTYYADSVKGRFTISRDNAKNTVYLQMNSLKPEDTAVYYCAATHYGHSISYWFDYWGQGTQVTVSS,high polyreactivity
8,QVQLVESGGGLVQAGGSLRLSCAASGFIFHPYAMGWYRQAPGKERELVAAISWSGDGTYYADSVKGRFTISRDNAKNTVYLQMNSLKPEDTAVYYCNAGFYRSYYKSPMGYWGQGTQVTVSS,low polyreactivity
9,QVQLVESGGGLVQAGGSLRLSCAASGFIFHRYAMGWYRQAPGKERELVASITRSGGSTYYADSVKGRFTISRDNAKNTVYLQMNSLKPEDTAVYYCAAQLPSYYKYPRHDYWGQGTQVTVSS,high polyreactivity
10,QVQLVESGGGLVQAGGSLRLSCAASGFIFHVYAMGWYRQAPGKERELVARITSSGGNTFYADSVKGRFTISRDNAKNTVYLQMNSLKPEDTAVYYCAKRYRYSVGWPVKNSAFGYWGQGTQVTVSS,low polyreactivity
11,QVQLVESGGGLVQAGGSLRLSCAASGFIFHYNAMGWYRQAPGKERELVAAISARGGGTYYADSVKGRFTISRDNAKNTVYLQMNSLKPEDTAVYYCAAGNYPLGDGYWGQGTQVTVSS,high polyreactivity
12,QVQLVESGGGLVQAGGSLRLSCAASGFIFHYYAMGWYRQAPGKERELVAAISSGGGRTYYADSVKGRFTISRDNAKNTVYLLMNSLKPEDTAVYYCAARYAVNAWGGRRDYWGQGTEVTVSS,high polyreactivity
13,QVQLVESGGGLVQAGGSLRLSCAASGFIFIINAMGWYRQAPGKERELVAGIRWSGGSTYYADSVKGRFTISRDNAKNTVYLQMNSLKPEDTAVYYCNKDRGSLTLYTYDYWGQGTQVTVSS,low polyreactivity
14,QVQLVESGGGLVQAGGSLRLSCAASGFIFIIYAMGWYRQAPGKERELVAGIRWSGGSTYYADSVKGRFTISRDNAKNTVYLQMNSLKPEDTAVYYCIKDRGSLTLYTYDYWGQGTQVTVSS,low polyreactivity
15,QVQLVESGGGLVQAGGSLRLSCAASGFIFIKYAMGWYRQAPGKERELVAGITRSGSSTYYADSVKGRFTISRDNAKNTVYLQMNSLKPEDTAVYYCAAASGSSVGRYGYWGQGTQVTVSS,high polyreactivity
16,QVQLVESGGGLVQAGGSLRLSCAASGFIFILNAMGWYRQAPGKERELVAGISISGGSTYYADSVKGRFTISRDNAKNTVYLQMNSLKPEDTAVYYCAAPDGDTRVSDQAYDYWGQGTQVTVSS,low polyreactivity

row,Sequence,polyreactivity (PSR sort gate)
1,QVQLVESGGGLVQAGGSLRLSCAASGFIFIRNAMGWYRQAPGKEWELVAAISSGGRTYYADSVKGRFTISRDNAKNTVYLQMNSLKPEDTAVYYCAARVITHYGRYYYWGQGTQVTVSS,high polyreactivity
2,QVQLVESGGGLVQAGGSLRLSCAASGFIFITVNAMGWYRQAPGKEREFVAAITRSGTGTYYADSVKGRFTISRDYAKYTVFLQMNSLKPEDTAVSYCAADATSTGAYDYWGQGTQVTVSS,low polyreactivity
3,QVQLVESGGGLVQAGGSLRLSCAASGFIFITYDMGWYIQAPGKERELVAVITSGGTTNYADSVKGRFTIARDNAKNTVYLQMNSLKPEDTAVYYCNRDSVLDPGNPNPYGFDYWGQGTQVTVSS,low polyreactivity
4,QVQLVESGGGLVQAGGSLRLSCAASGFIFIYYAMGWYRQAPGKERELVATINGITGSTYYADSVKGRFTISRDNAKNTVYLQMNSLKPEDTAVYYCAKVPRKYRAWMDYWGQGTQVTVSS,high polyreactivity
5,QVQLVESGGGLVQAGGSLRLSCAASGFIFKANAMGWYRQAPGKERELVAVITRRGGSTYYADSVKGRFTISRDNAKNTVYLQMNSLKPEDTAVYYCAAKSYTYGYNYWGQGTQVTVSS,high polyreactivity
6,QVQLVESGGGLVQAGGSLRLSCAASGFIFKAYAMGWYRQAPGKERELVASITSGDSTNYADSVKGRFTISRDNAKNTVYLQMNSLKPEDTAVYYCNADGWRWHRRKWVYGYDYWGQGTQVTVSS,low polyreactivity
7,QVQLVESGGGLVQAGGSLRLSCAASGFIFKFYTMGWYRQAPGKERELVAVISGSGGRTYYADSVKGRFTISRDNAKNTVYLQMNSLKPEDTAVYYCARYGPYQSSYHYDYWGQGTQVTVSS,high polyreactivity
8,QVQLVESGGGLVQAGGSLRLSCAASGFIFKGYAMGWYRQAPGKERELVAAISKGGGNTYYADSVMGRFSISRDNAKNTVYLQMNSLKPEDTAVYYCAAVPTRYRSYTYTYGGYNYWGQGTQVTVSS,high polyreactivity
9,QVQLVESGGGLVQAGGSLRLSCAASGFIFKGYDMGWYRQAPGKEREMVAAITSGSTNYADSVKGRFTNSRDNAKNTVYLQMNSVKPEDTAVYYCNAELGRATLYPRVFIERGGYWGQGTQVNVSS,low polyreactivity
10,QVQLVESGGGLVQAGGSLRLSCAASGFIFKKYVMGWYRQAPGKERELVAGISRSGGSTYYADSVKGRFTISRDNAKNTVYLQMNSLKPEDTAVYYCAAYIYQSPTRGGGYWGQGTQVTVSS,high polyreactivity
11,QVQLVESGGGLVQAGGSLRLSCAASGFIFKPNAMGWYRQAPGKERELVAAITWGGDNTYYADSVKGRFTISRDNAKNTVYLQMNSLKPDDTAVYYCAAEWKFHSDASYIYDYWGQGTQVTVSS,high polyreactivity
12,QVQLVESGGGLVQAGGSLRLSCAASGFIFKPYAMGWYRQAPWKERELVAAITVNGGTTYYADSVKGRFTISRDNAKNTVYLQMNSLKPEDTAVYYCNRGRPGGPSWYHYDYWGQGTQVTVSS,high polyreactivity
13,QVQLVESGGGLVQAGGSLRLSCAASGFIFKRSAMGWYRQAPGKERELVAAITLSGGDTYYADSVKGRFTISRDNAKNNVYLQMNSLKPEDTAVYYCNAPYIGENYYWGQGTQVTVSS,high polyreactivity
14,QVQLVESGGGLVQAGGSLRLSCAASGFIFKRYAMGWYRQAPGKERELVAAITSGGSTHYADSVKGRFTISRDNAKNTVYFQMNSLKPEDTAVYYCASRRYKWGVRYDYWGQGTQVTVSS,high polyreactivity
15,QVQLVESGGGLVQAGGSLRLSCAASGFIFKSNAMGWYRQAPGKERELVAAITKRGGSTYYADSVKGRFTISRDNAKNTVYLQMNSLKPEDTAVYYCAVRKPYSRYGGFDYWGQGTQVTVSS,high polyreactivity
